The values that follow come from PMC8466066, “Searching for Biological Function of the Mysterious PA2504 Protein from Pseudomonas aeruginosa” (International Journal of Molecular Sciences, 2021).

The data set deals with the molecule itself. As to the kind of experiment: SEC-MALS; purified recombinant PA2504 on a Superdex200 column with HELEOS light scattering instrument; 50 mM Tris-Cl pH 7.0, 300 mM NaCl, 0.5 mL/min. On the technique in general: In gel filtration, larger molecules generally elute earlier.

B1: His6-tagged PA2504, recombinant, purified from E. coli (plasmid pQE2504) (natural protein)
chain: MASWTLVDASAIAVRHPYTFYKPDAETIDRVAAGESVKLIFAFDTDNPDAPRAERLWVTVEGIEADGAFSGRLDNYPQYIRDLSLGERIVFEARHIINTEHDPRETPISRYARRCFVTRRVIDEGKAVGYLYREAPEEENDSGWRLMAGDESDDYMNTAGTTAYVSLGSVLNADDSILPLLDAPPGRAFERLADGSFIEVQGPEG
notes: PA2504, uncharacterised protein of Pseudomonas aeruginosa; the PA2504 gene without the start codon cloned into pQE-80L; Dimer by SEC-MALS; No removal of the tag is described; also called His6PA2504; recombinant PA2504 protein; source: E. coli BL21-DE3, purified (Ni-NTA)
A word on the stoichiometry N: it is a count of units in the complex or per binding partner. B1: the “stoichiometry N” value was found to be 2.
